Reference: the DeepSol protein solubility set

Assay: soluble on expression in E. coli; label from the status in PepcDB or PDB records

Sequence	soluble on expression in E. coli
GPGSMRLLSKAAHPDGSMEVRVSVGTAEDLWHLYNFILVGDLVLTKTRRKVPRENALGTLAAEMKMLKLEVEVKHIAFTPDELRIQGVNKKENNFVKTGAHHTLTIHANPPQEVRITKREWDSICEDRLKDACDESGKADTAAVLMSFGEAQVLLVTRSFVHIKAKVEVTISKKHKSDGKARDKSIERFFKQSLDALVTHVDFEKTKLVLLCSPGHVREEFHAYIKEVTQRADHGPLREVYLNLSRFLLVKVSSTTISGLKEALSDPGVAQRMESTKCVDDIRMWEKFQDTMNKDPDRCVYTPQYVYYAAMAGAVGGLMISDDVFRSENPTERRFFLSLVNFVRQSGSPTVNVFSSKHVTGEQLTQLGSVAAVLRFSCPEIDDMEVVPEFLASKEVEEFIRANATARVTV	not soluble
RMSSQIRQNYSTDVEAAVNSLVNLYLQASYTYLSLGFYFDRDDVALEGVSHFFRELAEEKREGYERLLKMQNQRGGRALFQDIKKPAEDEWGKTPDAMKAAMALEKKLNQALLDLHALGSARTDPHLCDFLETHFLDEEVKLIKKMGDHLTNLHRLGGPEAGLGEYLSSKGSLSSTTKSLLSPATSEGPLAK	soluble
MEILSGRSSIIIDTDPINVYNQAHPPFSFPIPAKDVMSVASRPDLRNENLMVFSSIEGDLALLKSMNLPANVKIVYDNTDGSWVRYYPYAFYRSINAEELYAKIDDFVVLDIREEFELFSGFIEGSVNIPFSSIMQEPVELDKNRKYAVVCAHGNRSRVAVELLSSKGIEVYDVPGGMQKWLETGLPVSYEED	not soluble
KTNTEQFCASCHMQDAYPEYLHSVHYQTRTGVGASCPDCHVPHEFGAKMKRKIIAAKEVYAHYTGKVDTLEKFNAHRLEMAQNEWARMKANDSKECRNCHNVDRMTFNDQRSVAARMHQKMKTEGKTCIDCHKGIAHQLPDMSGVESGFKDEK	not soluble
GSPNSTAEPTVAARPQQIDALRTLIRLGSLHTPMVVRTAATLRLVDHILAGARTVKALAARTDTRPEALLRLIRHLVAIGLLEEDAPGEFVPTEVGELLADDHPAAQRAWHDLTQAVARADISFTRLPDAIRTGRPTYESIYGKPFYEDLAGRPDLRASFDSLLACDQDVAFDAPAAAYDWTNVRHVLDVGGGKGGFAAAIARRAPHVSATVLEMAGTVDTARSYLKDEGLSDRVDVVEGDFFEPLPRKADAIILSFVLLNWPDHDAVRILTRCAEALEPGGRILIHERDDLHENSFNEQFTELDLRMLVFLGGALRTREKWDGLAASAGLVVEEVRQLPSPTIPYDLSLLVLAPAATGA	soluble
MRKEDKGTVIRQLAKYIGQYPHFYLTDIEALNAEKTSELRRNCNKNGVKLVMVKNTLLRAALAASDVDFSSLYSCLKGNTAVMFCEVANSPAKVIKQFTKDTKGEGKPWLKAAYVQESFYIGRENLDALVSIKSKNELIADVVALLQSPAKNVIASLQSAGQTIHGVLKTLEEK	not soluble
MPTFTLRPYTEADEDPAIALWLRTWQLAYPAIDFTKRVDWWRERWRTELVPQAAIIVAEQDSALIGFVTIDAVGYLDQLVVEPEHWGWGVAEALVDEAKQRSPTEVTLKVNADNYRAIKFYRRNGFAVTSEELNSSGRPVLNMLWRPA	not soluble
MTHFKGGTMSQFEKYHPILTPHYTFDWLTKVRVIDVFNLYQTSNATATMETTAAQINHTMREIFHDHQLVWGVTARDTNAFVGQVGFAPIDTAKHEATLSVDLTATYQQVTTLREILERLVAFGTVELKLNRLTLILPKHDDLMAQILAGLNFSTTDHLTFNYHQ	not soluble
MPQSESNIALLIDADNAPASKIEAIVSEIAKYGVANIRKAYGNWKSPNLKAWEECLHEYAIRPVQQFDYTKGKNATDAAMIIDAMDLLYTQRLDAFAIVSSDCDFTPLVMRILTNGLKVYGFGEKKTPLPFVYACSTFLYLESIDQIENSEGATQSSTSVKKTGKELKQDAKLISLLRSAISSTIDDDGWSSLAEIGGHIKNQASFDSRNYGYAKLSSLFEAIDLFEIERKNRAIYVRNRQKKSATSKSLEHHHHHH	soluble
PVYAGGQVARGGQLGVLGNADIMDVPFTMTSYTEQLIEDQQAEDVGDVLLNDASVRQSSGYANASKIFVIRGLKLTTDDISYNGLYGVLPRQIISTDALERVEVFKGPNA	not soluble
MAAPAAVRRGGRSTSSAMAMDSGRPVTSGILASLCEQWQNQPRTPLSHRSGNLPMSDPDVLIIGAGHNGLTCAAYLARAGLKVKVVERRNVVGGAAVTQEFHPGFRNSVAAYTVSLLNPKVIADLKLHEHGLRIVERKAQNFLPAPDGQYLLTGSNTTAASLARLSAHDAAAFGGFAAELETIADVLRHFVLRAPPNLVVQFGLPAIRESLNALETANRLRALTMEQQRLLLDLFTCSAGEMLDARFEHDLVKALFGFDAIVGNYASPYAAGSAYVMLHHAFGEVNGKKGVWGHAIGGMGAITSAMAAAARAAGAEIETSAGVREVLVEKDRVVGVTLDDGRNVRARFVASNVNPKLLYTRLLPQDALPDDVRRRMQNWKTGSGTFRMNVALSRLPSFTALPGDGDHLTAGIIIAPSLGYMDRAYQDARAHGWSREPVVEMLIPSTLDDSLAPKGQHVASLFCQHVAPELPDGASWDDHRDEVADLMIATVDRYAPGFAASVLGRQILSPLDLEREFGLVGGDIFHGALSLNQLFSARPLLGHADYRGPLKGLYHCGSGAHPGGGVTGAPGHNAAAAILNDHRSLFASRGLEHHHHHH	not soluble
MSLKEELQLKQKLGGQKMVIQGDTLENSARRLLQERGVTMNDLAELVLFLQKDYIDNLTLDTCLESVDAVLTKREVHNAIITGVQLDILAEENKLLSPLQEILTEDEGLYGIDEIMALSIVNVYGSIGFTNYGYIDKVKPGILKELNAHDGEHVHTFLDDIVGAIAAAAASRLAHSQPDLSDITKEGGSHHHHHH	soluble
MSLTLQQKELFQKSPLLLENGETLSPVLVGYETYGTLSASRDNCILLEHALTGTAHAAKHFEDDAPGWWDDYIGPGKTIDTDKYFLVCTNVFGGCSGTTGPSSINPKTGEPFRLQFPGFSIKDIIKVQRELLEQLGVTRIVSVIGGSMGGMQATEWAIDYADITDSIINIASPLAAGPDAIGYNLIMRMAILNDPDFNGGNYVGQPEGGLATARMVGMMTYRTSELFSKRFERFTVAESSPAAFSKEHFQIESYLQYQGDTFVERFDANSYLYLTKAIDLFDVTAPAKDDLPAFSKIKIPYLLIGITTDQLFRIHDLRRGYELLKEWDVPVTYHEVASEYGHDAFLVEKEVPKFEPLIRSFLSNLPVKSIEGHHHHHH	soluble
MKSADLIIIGGGMVGLALAGLLKDSPCQIKIIEKSAPKTQKYYANRVSAINTASEKMLQQLGVFEHIPTDAYTDYQKIIVSEKDSFAKIEFDNNDLAIKQLGLTQLGLIIANSQLQQALWQQVSQQKNVEIILSTPKTIGISESGAFLTLENGEMLAGKLVVGADGAHSWLRNQINIPLISQDYQQTALVCCVETAEPHNNIARQIFGPDSILAFLPLADKNQCSIVWSLPPDQANKLTTCDEQQFNQALTIAFDYQLGLVKLQDSRKIYPLTARYARDFAQMRIALIGDAAHTIHPLAGLGVNLGFADAITLAEQIKLHLAAAHDIGEYRHLRYFERTRKTETIKLLAAMEGLKQLFSGNNPLKKLIRGIGLVGTNHFSAIKKRLIEQVVNILEHHHHHH	soluble
MGMENYNPPQEPWLVILYQDDHIMVVNKPSGLLSVPGRLEEHKDSVMTRIQRDYPQAESVHRLDMATSGVIVVALTKAAERELKRQFREREPKKQYVARVWGHPSPAEGLVDLPLICDWPNRPKQKVCYETGKPAQTEYEVVEYAADNTARVVLKPITGRSHQLRVHMLALGHPILGDRFYASPEARAMAPRLLLHAEMLTITHPAYGNSMTFKAPADFLEHHHHHH	soluble
MEGVRLGWRGLSREGRGGAWHAAERTRPCTQRVPPSSQKIALQLKATLENVTNLRPVGEDFRWYLKMKCGNCGEISEKWQYIRLMDSVALKGGRGSASMVQKCKLCARENSIDILSSTIKAYNAEDNEKFKTIVEFECRGLEPVDFQPQAGFAADGVESGTVFSDINLQEKDWTDYDEKAQESVGIFEVTHQFVKC	soluble
MFDRYESGERAVLVHINFTQEGEWEDLAEFEMLVSSAGVETLQVVTGSRQSPHPKYYVGEGKAQEIATTVHLTGAEIVIFNHSLSPAQERNLEALCKCRVLDRTGLILDIFAQRARTHEGKLQVELAQLRHISTRLIRGWTHLERQKGGIGLRGPGETQLETDRRLLRERIKAILRRLEKVAKQREQGRRARNRAEIPTISLVGYTNAGKSTLFNRITEAGVYAADQLFATLDPTLRKMELADVGPAILADTVGFIRHLPHDLVAAFKATLQETQEADILLHVVDASDERFRENIQAVHEVLEEIDAHEVPTLVVMNKIDNLESQTPRIERDEEGVPRAVWVSAMEGLGIELLFDALTERLASQMVEHQLRIPPQYQGRFRSTFFQMKCIQREEYDQDGNLLIDIRMQQVDWSRLEKREGAVLTDFIVTLEHHHHHH	not soluble
ERSAVQLSLSSRLQLTLYQYKTCPFCSKVRAFLDFHALPYQVVEVNPVLRAEIKFSSYRKVPILVAQEGESSQQLNDSSVIISALKTYLVSGQPLEEIITYYPAMKAVNDQGKEVTEFGNKYWLMLNEKEAQQVYSGKEARTEEMKWRQWADDWLVHLISPNVYRTPTEALASFDYIVREGKFGAVEGAVAKYMGAAAMYLISKRLKSRHRLQDNVREDLYEAADKWVAAVGKDRPFMGGQKPNLADLAVYGVLRVMEGLDAFDDLMQHTHIQPWYLRVERAITEASPAH	soluble
MGSDKIHHHHHHMADFNQYTRWEHQMHGVKLPRWDDLPKFDLYMDQVTALINDVLGPLGIDTVTPAMINNYVKHNVIMAPVKKKYQTMQLTDILMISLLKPMFQTDTVRSGIDQITAGDYPKQAYDNFIGQLEDRLHHLGEDQVQPAAQNLNEKLMQVAVDTVVSRLQSEKLLRLIKRPLRKIEKK	not soluble
MGSDKIHHHHHHVDQVNAYRNSAHLYDLDQRELVTADIPFYLEYAGSFGGGILELGCGTGRIAIPLAEAGHDITALDLSENMLAAFSAKLTNVAAGTKKKLALVQGNMADFSLRKTFDMIIAPFRAFQALTRAEDINGCLACMREHLNDGGIVIINVFRPFGTLDESWCYPETVQWERWDDATGSKVVKKHWGQRIDVENQIIYPGFAYEVMASNGVVERFADNLALKYYYYEQLTTLLQDAGFRIKEEYGWYDKSPIENGRELIFVCTR	not soluble
MNDQYHRAARDGYLELLKEATRKELNAPDEDGMTPTLWAAYHGNLESLRLIVSRGGDPDKCDIWGNTPLHLAASNGHLHCLSFLVSFGANIWCLDNDYHTPLDMAAMKGHMECVRYLDSIAAKQSSLNPKLVGKLKDKAFREAERRIRECAKLQRRHHERMERRYRRELAERSDTLSFSSLTSSTLSRRLQHLALGSHLPYSQATLHGTARGKTKMQKKLERRKQGGEGTFKVSEDGRKSARSLSGLQLGSDVMFVRQGTYANPKEWGRAPLRDMFLSDEDSVSRATLAAEPAHSEVSTDSGHDSLFTRPGLGTMVFRRNYLSSGLHGLGREDGGLDGVGAPRGRLQSSPSLDDDSLGSANSLQDRSCGEELPWDELDLGLDEDLEPETSPLETFLASLHMEDFAALLRQEKIDLEALMLCSDLDLRSISVPLGPRKKILGAVRRRRQAMERPPALEDTEL	soluble
MGSDKIHHHHHHMDSFHSFNQHAFNRHAKTYHLFAHIQQQIAICLVQFLKQKHYAKVLDLGSGSGAVFNALERQNILIEEFIALDNSINMLKLHPTHSINIQKISLEHADFEEHVFCTYDLVVSSSSLQWARDLKSVLEKIALSSKEVALAIHTDFSLHEVHEFLGTPSPLRDLKTLKSLIKNAFKHFQIELENKRFALYFNRKQDCLNYLKKCGLLGGSTLSFKQKKHFFQNMAFEKLSYEVLLFSGIKRS	not soluble
